Source: patent publication US20100048462A1, “TRUNCATED PTH PEPTIDES WITH A CYCLIC CONFORMATION” (Zealand Pharma A/S, priority 2006, published 2010)
Where two headings read alike, the source gives them in different places. Bridge positions count the residues as written; N and C are the ends. Square brackets hold non-standard residues; d marks the D form. hArg = N=C(N)NCCCC[C@H](N)C(=O)O; Ac5c = NC1(C(=O)O)CCCC1; Aib = CC(C)(N)C(=O)O

Tests used:
Assay in all cases: cell-based or functional assay
[1] = molecular target: PTH receptor 1 on MC3T3-E1 cells (murine) (UniProt P41593)
Sequence of PTH receptor 1 on MC3T3-E1 cells (murine) (P41593 27-591): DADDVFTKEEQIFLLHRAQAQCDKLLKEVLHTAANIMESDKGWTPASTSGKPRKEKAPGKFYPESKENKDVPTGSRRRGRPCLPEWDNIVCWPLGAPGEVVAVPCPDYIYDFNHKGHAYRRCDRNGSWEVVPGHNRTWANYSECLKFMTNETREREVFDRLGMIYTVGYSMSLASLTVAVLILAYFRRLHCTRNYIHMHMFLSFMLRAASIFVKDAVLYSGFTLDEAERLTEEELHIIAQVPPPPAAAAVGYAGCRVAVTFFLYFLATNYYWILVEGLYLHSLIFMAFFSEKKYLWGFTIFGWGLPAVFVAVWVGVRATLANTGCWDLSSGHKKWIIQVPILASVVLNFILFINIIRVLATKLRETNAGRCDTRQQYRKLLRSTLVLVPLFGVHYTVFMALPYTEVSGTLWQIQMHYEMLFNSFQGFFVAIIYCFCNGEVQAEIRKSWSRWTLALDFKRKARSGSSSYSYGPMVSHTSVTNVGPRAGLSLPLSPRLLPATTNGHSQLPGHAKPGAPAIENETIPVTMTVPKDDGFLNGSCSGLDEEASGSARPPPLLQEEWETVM

Saos-2 PTH1R = Saos-2 PTH1R (UniProt Q03431)
Sequence of Saos-2 PTH1R (Q03431 27-593 limits assumed): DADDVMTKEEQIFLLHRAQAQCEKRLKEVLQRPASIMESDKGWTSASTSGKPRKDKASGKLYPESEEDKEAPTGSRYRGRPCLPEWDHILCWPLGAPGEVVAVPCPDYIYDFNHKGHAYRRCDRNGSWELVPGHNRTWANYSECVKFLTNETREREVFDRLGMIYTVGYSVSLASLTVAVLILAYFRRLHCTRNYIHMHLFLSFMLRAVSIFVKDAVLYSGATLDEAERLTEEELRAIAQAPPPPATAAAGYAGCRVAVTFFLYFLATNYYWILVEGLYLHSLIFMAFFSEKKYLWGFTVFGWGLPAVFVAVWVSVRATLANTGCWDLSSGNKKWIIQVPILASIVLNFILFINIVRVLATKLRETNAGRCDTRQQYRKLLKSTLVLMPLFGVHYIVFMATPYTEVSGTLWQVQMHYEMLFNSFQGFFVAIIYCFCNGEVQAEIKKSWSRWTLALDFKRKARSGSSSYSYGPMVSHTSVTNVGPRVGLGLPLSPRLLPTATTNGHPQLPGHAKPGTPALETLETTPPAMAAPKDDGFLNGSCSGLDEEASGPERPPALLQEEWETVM

CYP2D6 = CYP2D6 (Homo sapiens, UniProt P10635)
Sequence of CYP2D6 (P10635 whole entry): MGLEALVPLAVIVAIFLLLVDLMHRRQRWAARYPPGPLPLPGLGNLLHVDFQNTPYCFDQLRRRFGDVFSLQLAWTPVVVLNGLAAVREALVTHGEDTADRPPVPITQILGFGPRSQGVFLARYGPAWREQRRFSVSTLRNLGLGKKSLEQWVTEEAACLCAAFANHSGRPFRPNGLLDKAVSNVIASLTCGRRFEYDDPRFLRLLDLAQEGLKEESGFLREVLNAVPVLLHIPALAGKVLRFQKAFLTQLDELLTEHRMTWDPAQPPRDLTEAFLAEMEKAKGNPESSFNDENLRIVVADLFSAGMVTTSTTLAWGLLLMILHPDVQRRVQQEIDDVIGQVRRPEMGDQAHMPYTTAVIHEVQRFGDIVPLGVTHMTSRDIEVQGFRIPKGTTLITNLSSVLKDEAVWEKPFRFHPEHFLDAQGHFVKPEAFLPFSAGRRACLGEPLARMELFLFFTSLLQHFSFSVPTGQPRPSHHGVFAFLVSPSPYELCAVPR

How did the EC50, cAMP in an osteoblast-like cell line (MC3T3-E1) [1] turn out when “(H-Ac5c-Val-Aib-Glu-Ile-Gln-Leu-Met-His-Gln-Har-Ala-Lys( )-Trp-Leu-Asp( )-NH2)2 (peptide)” was run?
The EC50, cAMP in an osteoblast-like cell line (MC3T3-E1) was 1 nM.

What about the Emax, cAMP efficacy assay in MC3T3-E1 cells [1] of the same molecule?
Its Emax, cAMP efficacy assay in MC3T3-E1 cells is 5 pmol/well.

What about the agonist potency relative to SEQ ID NO: 30, cAMP in MC3T3-E1 cells (fold stronger) [1] of the same molecule?
Its agonist potency relative to SEQ ID NO: 30, cAMP in MC3T3-E1 cells (fold stronger) is 8.

What about the pEC50, cAMP efficacy assay in MC3T3-E1 cells [1] of the same molecule?
The pEC50, cAMP efficacy assay in MC3T3-E1 cells was 8.9 -log(M).

And the Emax, cAMP efficacy assay in Saos-2 cells (33T, trifluoroacetate salt) (relative to control (SEQ ID NO: 32)) (Saos-2 PTH1R)?
The Emax, cAMP efficacy assay in Saos-2 cells (33T, trifluoroacetate salt) (relative to control (SEQ ID NO: 32)) was 1.1.

And the pEC50, cAMP efficacy assay in Saos-2 cells (33T, trifluoroacetate salt) (Saos-2 PTH1R)?
Its pEC50, cAMP efficacy assay in Saos-2 cells (33T, trifluoroacetate salt) is 7.88 -log(M).

With “H-Ac5c-Val-Aib-Glu-Ile-Gln-Leu-Met-His-Gln-Har-Ala-Lys( )-Trp-Leu-Asp( )-NH2 (peptide)” as the molecule, how does the CYP2D6 activity (% of vehicle), dextrorphan formation rate in human liver microsomes, 10 µM peptide (CYP2D6) read?
The CYP2D6 activity (% of vehicle), dextrorphan formation rate in human liver microsomes, 10 µM peptide was 83 % of vehicle.

And the Emax, cAMP efficacy assay in MC3T3-E1 cells [1]?
Its Emax, cAMP efficacy assay in MC3T3-E1 cells is 5 pmol/well.

And the pEC50, cAMP efficacy assay in MC3T3-E1 cells [1]?
The pEC50, cAMP efficacy assay in MC3T3-E1 cells was 8 -log(M).

And the Emax, cAMP efficacy assay in Saos-2 cells (30T, trifluoroacetate salt) (relative to control (SEQ ID NO: 32)) (Saos-2 PTH1R)?
The Emax, cAMP efficacy assay in Saos-2 cells (30T, trifluoroacetate salt) (relative to control (SEQ ID NO: 32)) was 1.04.

And the pEC50, cAMP efficacy assay in Saos-2 cells (30T, trifluoroacetate salt) (Saos-2 PTH1R)?
Its pEC50, cAMP efficacy assay in Saos-2 cells (30T, trifluoroacetate salt) is 7.09 -log(M).

With PTH(1-34) (peptide) as the molecule, how does the Emax, cAMP efficacy assay in MC3T3-E1 cells [1] read?
Its Emax, cAMP efficacy assay in MC3T3-E1 cells is 4.4 pmol/well.

B1: H-Ac5c-Val-Aib-Glu-Ile-Gln-Leu-Met-His-Gln-Har-Ala-Cys( )-Trp-Leu-Asn-Cys( )-NH2 (peptide)
chain: H-[Ac5c]V[Aib]EIQLMHQ[hArg]ACWLNC-NH2
modifications: disulfide 13-17
SMILES: CC[C@H](C)[C@H](NC(=O)[C@H](CCC(=O)O)NC(=O)C(C)(C)NC(=O)[C@@H](NC(=O)C1(N)CCCC1)C(C)C)C(=O)N[C@@H](CCC(N)=O)C(=O)N[C@@H](CC(C)C)C(=O)N[C@@H](CCSC)C(=O)N[C@@H](Cc1c[nH]cn1)C(=O)N[C@@H](CCC(N)=O)C(=O)N[C@@H](CCCCNC(=N)N)C(=O)N[C@@H](C)C(=O)N[C@H]1CSSC[C@@H](C(N)=O)NC(=O)[C@H](CC(N)=O)NC(=O)[C@H](CC(C)C)NC(=O)[C@H](Cc2c[nH]c3ccccc23)NC1=O
Which results are given for B1?
CYP2D6 activity (% of vehicle), dextrorphan formation rate in human liver microsomes, 10 µM peptide (CYP2D6): 85 % of vehicle; Emax, cAMP efficacy assay in Saos-2 cells (7T, trifluoroacetate salt) (relative to control (SEQ ID NO: 32)) (Saos-2 PTH1R): 1.2; pEC50, cAMP efficacy assay in Saos-2 cells (7T, trifluoroacetate salt) (Saos-2 PTH1R): 7.3 -log(M)

B2: H-Ac5c-Val-Aib-Glu-Ile-Gln-Leu-Met-His-Asn-Leu-Gly-Lys-His-Leu-Asn-Asp-NH2 (peptide)
chain: H-[Ac5c]V[Aib]EIQLMHNLGKHLND-NH2
SMILES: CC[C@H](C)[C@H](NC(=O)[C@H](CCC(=O)O)NC(=O)C(C)(C)NC(=O)[C@@H](NC(=O)C1(N)CCCC1)C(C)C)C(=O)N[C@@H](CCC(N)=O)C(=O)N[C@@H](CC(C)C)C(=O)N[C@@H](CCSC)C(=O)N[C@@H](Cc1c[nH]cn1)C(=O)N[C@@H](CC(N)=O)C(=O)N[C@@H](CC(C)C)C(=O)NCC(=O)N[C@@H](CCCCN)C(=O)N[C@@H](Cc1c[nH]cn1)C(=O)N[C@@H](CC(C)C)C(=O)N[C@@H](CC(N)=O)C(=O)N[C@@H](CC(=O)O)C(N)=O
B2 was tested. Which CYP2D6 activity (% of vehicle), dextrorphan formation rate in human liver microsomes, 10 µM peptide (CYP2D6) did it give?
Its CYP2D6 activity (% of vehicle), dextrorphan formation rate in human liver microsomes, 10 µM peptide is 57 % of vehicle.

And the CYP2D6 activity (% of vehicle), dextrorphan formation rate in human liver microsomes, 10 µM peptide (CYP2D6; record 2)?
The CYP2D6 activity (% of vehicle), dextrorphan formation rate in human liver microsomes, 10 µM peptide was 107 % of vehicle.

What about the Emax, cAMP efficacy assay in Saos-2 cells (34T, trifluoroacetate salt) (relative to control (SEQ ID NO: 32)) (Saos-2 PTH1R) of the same molecule?
The Emax, cAMP efficacy assay in Saos-2 cells (34T, trifluoroacetate salt) (relative to control (SEQ ID NO: 32)) was 1.12.

What about the pEC50, cAMP efficacy assay in Saos-2 cells (34T, trifluoroacetate salt) (Saos-2 PTH1R) of the same molecule?
The pEC50, cAMP efficacy assay in Saos-2 cells (34T, trifluoroacetate salt) was 6.67 -log(M).

B3: H-Ac5c-Val-Aib-Glu-Ile-Gln-Leu-Met-His-Gln-Har-Ala-Lys-Trp-Leu-Asn-Asp-NH2 (peptide)
chain: H-[Ac5c]V[Aib]EIQLMHQ[hArg]AKWLND-NH2
SMILES: CC[C@H](C)[C@H](NC(=O)[C@H](CCC(=O)O)NC(=O)C(C)(C)NC(=O)[C@@H](NC(=O)C1(N)CCCC1)C(C)C)C(=O)N[C@@H](CCC(N)=O)C(=O)N[C@@H](CC(C)C)C(=O)N[C@@H](CCSC)C(=O)N[C@@H](Cc1c[nH]cn1)C(=O)N[C@@H](CCC(N)=O)C(=O)N[C@@H](CCCCNC(=N)N)C(=O)N[C@@H](C)C(=O)N[C@@H](CCCCN)C(=O)N[C@@H](Cc1c[nH]c2ccccc12)C(=O)N[C@@H](CC(C)C)C(=O)N[C@@H](CC(N)=O)C(=O)N[C@@H](CC(=O)O)C(N)=O
Which CYP2D6 activity (% of vehicle), dextrorphan formation rate in human liver microsomes, 10 µM peptide (CYP2D6) does the source give for B3 here?
Its CYP2D6 activity (% of vehicle), dextrorphan formation rate in human liver microsomes, 10 µM peptide is 29 % of vehicle.

And the CYP2D6 activity (% of vehicle), dextrorphan formation rate in human liver microsomes, 10 µM peptide (CYP2D6; record 2)?
Its CYP2D6 activity (% of vehicle), dextrorphan formation rate in human liver microsomes, 10 µM peptide is 67 % of vehicle.

What about the EC50, cAMP in an osteoblast-like cell line (MC3T3-E1) [1] of the same molecule?
Its EC50, cAMP in an osteoblast-like cell line (MC3T3-E1) is 1 nM.

What about the Emax, cAMP efficacy assay in MC3T3-E1 cells [1] of the same molecule?
Its Emax, cAMP efficacy assay in MC3T3-E1 cells is 4.9 pmol/well.

And the agonist potency relative to SEQ ID NO: 2, cAMP in MC3T3-E1 cells [1]?
The agonist potency relative to SEQ ID NO: 2, cAMP in MC3T3-E1 cells was 6 fold weaker.

And the pEC50, cAMP efficacy assay in MC3T3-E1 cells [1]?
Its pEC50, cAMP efficacy assay in MC3T3-E1 cells is 9 -log(M).

What about the Emax, cAMP efficacy assay in MC3T3-E1 cells ([1]; record 2) of the same molecule?
Its Emax, cAMP efficacy assay in MC3T3-E1 cells is 5.7 pmol/well.

What about the pEC50, cAMP efficacy assay in MC3T3-E1 cells ([1]; record 2) of the same molecule?
The pEC50, cAMP efficacy assay in MC3T3-E1 cells was 8.2 -log(M).

What about the Emax, cAMP efficacy assay in Saos-2 cells (2A, acetate salt) (relative to control (SEQ ID NO: 32)) (Saos-2 PTH1R) of the same molecule?
Its Emax, cAMP efficacy assay in Saos-2 cells (2A, acetate salt) (relative to control (SEQ ID NO: 32)) is 0.99.

And the Emax, cAMP efficacy assay in Saos-2 cells (2C, chloride salt) (relative to control (SEQ ID NO: 32)) (Saos-2 PTH1R)?
The Emax, cAMP efficacy assay in Saos-2 cells (2C, chloride salt) (relative to control (SEQ ID NO: 32)) was 0.94.

What about the Emax, cAMP efficacy assay in Saos-2 cells (2T, trifluoroacetate salt) (relative to control (SEQ ID NO: 32)) (Saos-2 PTH1R) of the same molecule?
Its Emax, cAMP efficacy assay in Saos-2 cells (2T, trifluoroacetate salt) (relative to control (SEQ ID NO: 32)) is 0.7.

What about the Emax, cAMP efficacy assay in Saos-2 cells (42T, trifluoroacetate salt) (relative to control (SEQ ID NO: 32)) (Saos-2 PTH1R) of the same molecule?
The Emax, cAMP efficacy assay in Saos-2 cells (42T, trifluoroacetate salt) (relative to control (SEQ ID NO: 32)) was 1.03.

What about the pEC50, cAMP efficacy assay in Saos-2 cells (2A, acetate salt) (Saos-2 PTH1R) of the same molecule?
Its pEC50, cAMP efficacy assay in Saos-2 cells (2A, acetate salt) is 8.2 -log(M).

What about the pEC50, cAMP efficacy assay in Saos-2 cells (2C, chloride salt) (Saos-2 PTH1R) of the same molecule?
Its pEC50, cAMP efficacy assay in Saos-2 cells (2C, chloride salt) is 8.18 -log(M).

And the pEC50, cAMP efficacy assay in Saos-2 cells (2T, trifluoroacetate salt) (Saos-2 PTH1R)?
Its pEC50, cAMP efficacy assay in Saos-2 cells (2T, trifluoroacetate salt) is 8.18 -log(M).

What about the pEC50, cAMP efficacy assay in Saos-2 cells (42T, trifluoroacetate salt) (Saos-2 PTH1R) of the same molecule?
The pEC50, cAMP efficacy assay in Saos-2 cells (42T, trifluoroacetate salt) was 7.68 -log(M).
